Data set [1] concerns the molecule itself. Nature of the data set: filament reconstitution seen by electron microscopy; protein incubated without DNA under the same conditions as the filament reconstitution; kind of microscopy not told.
Data set [2] deals with the molecule itself. Nature of the data set: cryo-EM structure; ICP8 double filament reconstituted with linear dsDNA carrying long ssDNA tails (T4 polymerase-treated); single-particle analysis of filament segments, 3.2 Å; DNA could not be built into the map.

B1: BALF2, DNA-binding protein of Epstein-Barr Virus (natural protein)
chain: MQGAQTSEDNLGSQSQPGPCGYIYFYPLATYPLREVATLGTGYAGHRCLTVPLLCGITVEPGFSINVKALHRRPDPNCGLLRATSYHRDIYVFHNAHMVPPIFEGPGLEALCGETREVFGYDAYSALPRESSKPGDFFPEGLDPSAYLGAVAITEAFKERLYSGNLVAIPSLKQEVAVGQSASVRVPLYDKEVFPEGVPQLRQFYNSDLSRCMHEALYTGLAQALRVRRVGKLVELLEKQSLQDQAKVAKVAPLKEFPASTISHPDSGALMIVDSAACELAVSYAPAMLEASHETPASLNYDSWPLFADCEGPEARVAALHRYNASLAPHVSTQIFATNSVLYVSGVSKSTGQGKESLFNSFYMTHGLGTLQEGTWDPCRRPCFSGWGGPDVTGTNGPGNYAVEHLVYAASFSPNLLARYAYYLQFCQGQKSSLTPVPETGSYVAGAAASPMCSLCEGRAPAVCLNTLFFRLRDRFPPVMSTQRRDPYVISGASGSYNETDFLGNFLNFIDKEDDGQRPDDEPRYTYWQLNQNLLERLSRLGIDAEGKLEKEPHGPRDFVKMFKDVDAAVDAEVVQFMNSMAKNNITYKDLVKSCYHVMQYSCNPFAQPACPIFTQLFYRSLLTILQDISLPICMCYENDNPGLGQSPPEWLKGHYQTLCTNFRSLAIDKGVLTAKEAKVVHGEPTCDLPDLDAALQGRVYGRRLPVRMSKVLMLCPRNIKIKNRVVFTGENAALQNSFIKSTTRRENYIINGPYMKFLNTYHKTLFPDTKLSSLYLWHNFSRRRSVPVPSGASAEEYSDLALFVDGGSRAHEESNVIDVVPGNLVTYAKQRLNNAILKACGQTQFYISLIQGLVPRTQSVPARDYPHVLGTRAVESAAAYAEATSSLTATTVVCAATDCLSQVCKARPVVTLPVTINKYTGVNGNNQIFQAGNLGYFMGRGVDRNLLQAPGAGLRKQAGGSSMRKKFVFATPTLGLTVKRRTQAATTYEIENIRAGLEAIISQKQEEDCVFDVVCNLVDAMGEACASLTRDDAEYLLGRFSVLADSVLETLATIASSGIEWTAEAARDFLEGVWGGPGAAQDNFISVAEPVSTASQASAGLLLGGGGQGSGGRRKRRLATVLPGLEV
notes: also called EBV BALF2; source: insect cells, purified
Regarding B1, in data set [1], the binding result was “binds”.

B2: ICP8, full-length (Herpes Simplex Virus 1 DNA-binding protein) (natural protein)
chain: METKPKTATTIKVPPGPLGYVYARACPSEGIELLALLSARSGDSDVAVAPLVVGLTVESGFEANVAVVVGSRTTGLGGTAVSLKLTPSHYSSSVYVFHGGRHLDPSTQAPNLTRLCERARRHFGFSDYTPRPGDLKHETTGEALCERLGLDPDRALLYLVVTEGFKEAVCINNTFLHLGGSDKVTIGGAEVHRIPVYPLQLFMPDFSRVIAEPFNANHRSIGEKFTYPLPFFNRPLNRLLFEAVVGPAAVALRCRNVDAVARAAAHLAFDENHEGAALPADITFTAFEASQGKTPRGGRDGGGKGAAGGFEQRLASVMAGDAALALESIVSMAVFDEPPTDISAWPLFEGQDTAAARANAVGAYLARAAGLVGAMVFSTNSALHLTEVDDAGPADPKDHSKPSFYRFFLVPGTHVAANPQVDREGHVVPGFEGRPTAPLVGGTQEFAGEHLAMLCGFSPALLAKMLFYLERCDGAVIVGRQEMDVFRYVADSNQTDVPCNLCTFDTRHACVHTTLMRLRARHPKFASAARGAIGVFGTMNSMYSDCDVLGNYAAFSALKRADGSETARTIMQETYRAATERVMAELETLQYVDQAVPTAMGRLETIITNREALHTVVNNVRQVVDREVEQLMRNLVEGRNFKFRDGLGEANHAMSLTLDPYACGPCPLLQLLGRRSNLAVYQDLALSQCHGVFAGQSVEGRNFRNQFQPVLRRRVMDMFNNGFLSAKTLTVALSEGAAICAPSLTAGQTAPAESSFEGDVARVTLGFPKELRVKSRVLFAGASANASEAAKARVASLQSAYQKPDKRVDILLGPLGFLLKQFHAAIFPNGKPPGSNQPNPQWFWTALQRNQLPARLLSREDIETIAFIKKFSLDYGAINFINLAPNNVSELAMYYMANQILRYCDHSTYFINTLTAIIAGSRRPPSVQAAAAWSAQGGAGLEAGARALMDAVDAHPGAWTSMFASCNLLRPVMAARPMVVLGLSISKYYGMAGNDRVFQAGNWASLMGGKNACPLLIFDRTRKFVLACPRAGFVCAASSLGGGAHESSLCEQLRGIISEGGAAVASSVFVATVKSLGPRTQQLQIEDWLALLEDEYLSEEMMELTARALERGNGEWSTDAALEVAHEAEALVSQLGNAGEVFNFGDFGCEDDNATPFGGPGAPGPAFAGRKRAFHGDDPFGEGPPDKKGDLTLDML
notes: also called full-length ICP8 form; source: insect cells, purified
Take B2: the binding result in data set [2] is given as “binds”.

The record behind these values is paper doi:10.1101/2025.06.25.661518, “Structural insights into DNA annealing and recombination by herpesviral DNA-binding proteins ICP8 and BALF2” (bioRxiv, 2025).
